Results published in PMC7394560, “Post-replicative pairing of sister ter regions in Escherichia coli involves multiple activities of MatP” (Nature Communications, 2020).

Key:
MatP [1] = biological target: T1, MatP (Escherichia coli, UniProt P0A8N0 1-150); assay: pull-down; settings: EMSA: 10 mM Tris pH 7.5, 125 mM NaCl, 2.5 mM MgCl2, 0.5 mM DTT, 5% glycerol, 1 uM DNA, 0.25 ug poly(dI-dC), 30 C; pull-down: 20 mM Tris pH 7.5, 1 mM MgCl2 …
T1 sequence: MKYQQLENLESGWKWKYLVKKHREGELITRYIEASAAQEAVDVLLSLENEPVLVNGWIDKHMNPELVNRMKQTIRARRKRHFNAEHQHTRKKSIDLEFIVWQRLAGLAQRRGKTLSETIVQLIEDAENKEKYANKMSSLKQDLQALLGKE

[2] = biological target: the molecule itself; assay: native gel or EMSA; 41 bp matS DNA (1 µM) with 3 µM protein; 10 mM Tris pH 7.5, 125 mM NaCl, 2.5 mM MgCl2, 0.5 mM DTT, 5% glycerol, poly(dI-dC); 30 °C for 30 min; 5% native TGE-PAGE; oligomer size on DNA inferred from the mobility of the complexes against theoretical masses
MatPΔ20-His = biological target: T2, MatPΔ20-His (Escherichia coli, UniProt P0A8N0 1-130); assay: EMSA; equivalent efficiency to MatP; faster-migrating complex; EMSA: 10 mM Tris pH 7.5, 125 mM NaCl, 2.5 mM MgCl2, 0.5 mM DTT, 5% glycerol, 1 uM DNA, 0.25 ug poly(dI-dC), 30 C; pull-down: 20 mM Tris pH 7.5, 1 mM MgCl2, 150; settings: protein: recombinant; tags: His tag (MW 32 kDa with tag); chain copies: 2; label: 5' Cy3 on strand 1; blunt
T2 sequence: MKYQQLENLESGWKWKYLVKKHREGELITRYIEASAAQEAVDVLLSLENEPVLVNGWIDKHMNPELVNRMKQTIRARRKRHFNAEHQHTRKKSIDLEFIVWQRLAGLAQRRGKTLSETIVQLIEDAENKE

MatPΔ20 untagged = biological target: T3, MatPΔ20 untagged (Escherichia coli, UniProt P0A8N0 1-130); assay: EMSA; equivalent efficiency to MatP; EMSA: 10 mM Tris pH 7.5, 125 mM NaCl, 2.5 mM MgCl2, 0.5 mM DTT, 5% glycerol, 1 uM DNA, 0.25 ug poly(dI-dC), 30 C; pull-down: 20 mM Tris pH 7.5, 1 mM MgCl2, 150; settings: protein: recombinant; tags: none; chain copies: 2; label: 5' Cy3 on strand 1; blunt
T3 sequence: T2 sequence

MatP [3] = biological target: T1, MatP; assay: EMSA; 3 uM MatP, 2.5 mM Mg2+, poly(dI-dC); proposed tetramer; titration 0.2-2 uM in Suppl. Fig. 7a,b; EMSA: 10 mM Tris pH 7.5, 125 mM NaCl, 2.5 mM MgCl2, 0.5 mM DTT, 5% glycerol, 1 uM DNA, 0.25 ug poly(dI-dC), 30 C; pull-down: 20 mM Tris pH 7.5, 1 mM MgCl2, 150; settings: protein: recombinant; MW 21 kDa); chain copies: 4; label: 5' Cy3 on strand 1; blunt

In the case of DNAf(2matS), the binding signal (% DNAf recovered) (MatP [1]) is reported as 63.

B1: MatP (natural protein, E. coli, UniProt P0A8N0 1-150, looked up)
chain: T1 sequence
notes: MatP, macrodomain Ter protein of Escherichia coli; theoretical mass printed as 21 kDa; also called MatP wt; source: E. coli BL21DE3 (pET15b containing matP), purified (heparin column)
With B1 the “stoichiometry N” value [2] was 4.

B2: his-tagged MatPΔ20 (domain or fragment, E. coli, UniProt P0A8N0 1-130, looked up)
chain: T2 sequence
notes: MatP of Escherichia coli lacking the last 20 C-terminal residues; theoretical mass of the tagged protein printed as 32 kDa; The printed 32 kDa ('twice bigger' than MatP) is far more than a His tag adds to about 130 residues; also called MatPΔ20-tag; source: E. coli BL21DE3, purified (HisTrap column)
For B2, the “stoichiometry N” value [2] was 2.

B3: untagged MatPΔ20 (domain or fragment, E. coli, UniProt P0A8N0 1-130, looked up)
chain: T2 sequence
notes: MatP of Escherichia coli lacking the last 20 C-terminal residues; theoretical mass printed as 18 kDa; source: E. coli BL21DE3 (pET15b containing matPΔ20), purified (heparin column)
B3 was tested, and the “stoichiometry N” value [2] was 2.

B4: matS41 (dsDNA)
DNA 1: AAGTACGGTAAAAGGTGACAGTGTCACTTTCATTGTTGGTA
DNA 2: TACCAACAATGAAAGTGACACTGTCACCTTTTACCGTACTT
B4: binds (MatPΔ20-His); binds (MatPΔ20 untagged); binds (MatP [3]).
